Laboratory results published in article PMC6070450, “The tetraamine chelator outperforms HYNIC in a new technetium-99m-labelled somatostatin receptor 2 antagonist” (EJNMMI Research, 2018).
Read-outs that look alike come from different tables or passages of the source. One block for each compound: values may come before it.

Columns and labels:
[1] = molecular target: T1, sst1 (Homo sapiens, UniProt P30872); assay: Receptor autoradiography binding affinity, sst1; conditions: membrane pellet sections of human sst1-expressing CHO cells; mean ± SEM, n ≥ 3
T1 construct: expressed in transfected cells; host or cells: Chinese hamster ovary cells (gift of Drs. T. Reisine and G. Singh)
Experimental: (§1) Cell membrane pellets were prepared from human sst1-expressing Chinese hamster ovary cells (kindly provided by Drs. T. Reisine and G. Singh, University of Pennsylvania, Philadelphia, Pa.); sst2-, sst3-, and sst4-expressing CCL39 cells (kindly provided by Dr. D. Hoyer, Novartis Pharma, Basel, Switzerland); and sst5-expressing human embryonic kidney 293 (HEK293) cells (kindly provided by Prof. Stefan Schulz, University of Jena, Germany) and stored at − 80 °C. Quantitative receptor autoradiography was performed on 20-μm-thick membrane pellet sections and quantitated as previously described.

[2] = molecular target: T2, sst2 (Homo sapiens, UniProt P30874); assay: Receptor autoradiography binding affinity, sst2; conditions: membrane pellet sections of sst2-expressing CCL39 cells; mean ± SEM, n ≥ 3
T2 construct: expressed in transfected cells; host or cells: CCL39 cells (gift of Dr. D. Hoyer, Novartis)
Experimental: as §1

[3] = molecular target: T3, sst3 (Homo sapiens, UniProt P32745); assay: Receptor autoradiography binding affinity, sst3; conditions: membrane pellet sections of sst3-expressing CCL39 cells; mean ± SEM, n ≥ 3
T3 construct: expressed in transfected cells; host or cells: CCL39 cells (gift of Dr. D. Hoyer, Novartis)
Experimental: as §1

[4] = molecular target: T4, sst4 (Homo sapiens, UniProt P31391); assay: Receptor autoradiography binding affinity, sst4; conditions: membrane pellet sections of sst4-expressing CCL39 cells; mean ± SEM, n ≥ 3
T4 construct: expressed in transfected cells; host or cells: CCL39 cells (gift of Dr. D. Hoyer, Novartis)
Experimental: as §1

[5] = molecular target: T5, sst5 (Homo sapiens, UniProt P35346); assay: Receptor autoradiography binding affinity, sst5; conditions: membrane pellet sections of sst5-expressing HEK293 cells; mean ± SEM, n ≥ 3
T5 construct: expressed in transfected cells; host or cells: HEK293 cells (gift of Prof. Stefan Schulz, University of Jena)
Experimental: as §1

[6] = assay type: physicochemical
Experimental: The distribution coefficients (log D) were determined using the shake-flask method (see Additional file 1). […]
equivalents of DIPEA were used. The cleavage and deprotection of the peptide-chelator conjugates was accomplished by incubating for 1.5h in TFA:thioanisole:triisopropylsilane:H2O 95:2:2:1. The resin was then filtered and washed with the above mixture, after which the filtrate was evaporated and triturated with diethyl ether to give the crude product. This was purified by semi-preparative HPLC to obtain the corresponding chelator-peptide conjugate with purity ≥97%.
Radiolabeling of Chelator-Peptide Conjugates
177Lu-SS-03: 10 µg of SS-03 in 300 µL sodium acetate buffer (0.4 mol/L, pH 5.0) were […]
phosphate buffer pH 11.5 (50 μL) and 0.1 M sodium citrate (5 μL) followed by SS-04 solution (30 μg, 25 μL) and freshly prepared SnCl2 solution in ethanol (30 μg, 25 μL). […]
99mTc-SS-05: 30 µg SS05 was added to 1 mL aqueous edda/tricine solution (5 mg edda, 15 mg tricine). […] All radiolabeled peptides were analyzed with analytical HPLC. […]
Each radiopeptide was added to a presaturated 1/1mixture of PBS/n-octanol, at a concentration of 100 nmol/L. The mixtures were vigorously shaken for 10 min and then centrifuged. The activity concentrations of equal volume samples of both phases were measured in a γ-counter and the partition coefficient (LogD) was calculated. […]

[7] = in vivo; parameters: species or system mice; conditions: female, athymic nude, mouse, iv, 10 pmol, total radioactivity
Experimental: All animal experiments were conducted in compliance with Swiss animal protection laws and associated regulations. The protocol was approved by the Cantonal Veterinary Ethics Committee of the University of Basel (approval #789). Female athymic nude mice (4–6 weeks old) were injected subcutaneously (s.c.) in the right shoulder with 10^7 HEK293-rsst2 cells in 100 μL sterile PBS. The tumours were allowed to grow for 14–18 days (tumour weight 100–200 mg).
The mice were injected into the tail vein with 100 μL/10 pmol/0.37 MBq of ^177Lu-SS-03 or ^99mTc-SS-04 and were euthanised at 1, 4, and 24 h post-injection (p.i.). Organs of interest and blood were collected, rinsed of excess blood, blotted dry, weighed, and counted in a γ-counter. To determine nonspecific uptake, three animals were pre-injected with 20 nmol of the relevant unlabelled peptide in 0.9% NaCl solution (0.1 mL); after 5 min, the radiopeptide was injected and the percentage of injected activity per gram (%IA/g) was calculated for each tissue. The total counts injected per animal were determined by extrapolation from counts of an aliquot taken from the injected solution as a standard.

[8] = molecular target: T1, sst1; conditions: mean ± SEM; cited from earlier work
Source text: Table 2 Binding affinities (IC50, nM) of chelator-peptide conjugates | column: IC50 (nM)* / sst1

[9] = molecular target: T2, sst2; conditions: mean ± SEM; cited from earlier work
Source text: Table 2 Binding affinities (IC50, nM) of chelator-peptide conjugates | column: IC50 (nM)* / sst2

[10] = molecular target: T3, sst3; conditions: mean ± SEM; cited from earlier work
Source text: Table 2 Binding affinities (IC50, nM) of chelator-peptide conjugates | column: IC50 (nM)* / sst3

[11] = molecular target: T4, sst4; conditions: mean ± SEM; cited from earlier work
Source text: Table 2 Binding affinities (IC50, nM) of chelator-peptide conjugates | column: IC50 (nM)* / sst4

[12] = molecular target: T5, sst5; conditions: mean ± SEM; cited from earlier work
Source text: Table 2 Binding affinities (IC50, nM) of chelator-peptide conjugates | column: IC50 (nM)* / sst5

T2 sequence (P30874 whole entry): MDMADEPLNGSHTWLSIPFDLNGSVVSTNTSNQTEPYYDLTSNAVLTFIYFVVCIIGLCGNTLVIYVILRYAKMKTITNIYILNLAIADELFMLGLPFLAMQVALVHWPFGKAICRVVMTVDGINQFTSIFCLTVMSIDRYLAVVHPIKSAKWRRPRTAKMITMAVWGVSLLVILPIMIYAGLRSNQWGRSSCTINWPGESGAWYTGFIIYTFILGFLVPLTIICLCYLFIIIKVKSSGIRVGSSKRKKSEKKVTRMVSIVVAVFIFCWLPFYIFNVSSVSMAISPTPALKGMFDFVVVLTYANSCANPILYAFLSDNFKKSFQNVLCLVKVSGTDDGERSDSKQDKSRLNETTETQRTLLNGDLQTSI
T5 sequence (P35346 whole entry): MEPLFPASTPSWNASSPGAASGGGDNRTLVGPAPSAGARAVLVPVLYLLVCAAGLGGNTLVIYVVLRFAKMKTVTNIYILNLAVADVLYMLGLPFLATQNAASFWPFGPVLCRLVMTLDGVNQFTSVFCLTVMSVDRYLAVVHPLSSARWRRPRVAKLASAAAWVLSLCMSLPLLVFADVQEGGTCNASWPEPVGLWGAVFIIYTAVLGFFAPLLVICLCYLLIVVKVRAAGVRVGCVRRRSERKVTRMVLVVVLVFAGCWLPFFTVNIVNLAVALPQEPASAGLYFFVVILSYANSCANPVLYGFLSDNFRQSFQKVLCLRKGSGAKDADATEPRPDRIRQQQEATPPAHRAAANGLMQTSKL
T3 sequence (P32745 whole entry): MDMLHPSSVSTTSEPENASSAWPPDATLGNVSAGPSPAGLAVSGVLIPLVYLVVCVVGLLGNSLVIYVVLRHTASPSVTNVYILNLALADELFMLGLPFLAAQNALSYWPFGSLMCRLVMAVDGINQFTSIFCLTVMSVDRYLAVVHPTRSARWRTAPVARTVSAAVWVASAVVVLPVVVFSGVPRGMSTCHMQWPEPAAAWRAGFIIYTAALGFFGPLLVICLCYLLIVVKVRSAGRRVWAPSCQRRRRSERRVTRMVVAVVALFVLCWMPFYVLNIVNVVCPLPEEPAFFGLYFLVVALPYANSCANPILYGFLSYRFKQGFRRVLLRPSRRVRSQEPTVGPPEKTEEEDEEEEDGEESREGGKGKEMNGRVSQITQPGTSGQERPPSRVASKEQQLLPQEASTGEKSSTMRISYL
T1 sequence (P30872 whole entry): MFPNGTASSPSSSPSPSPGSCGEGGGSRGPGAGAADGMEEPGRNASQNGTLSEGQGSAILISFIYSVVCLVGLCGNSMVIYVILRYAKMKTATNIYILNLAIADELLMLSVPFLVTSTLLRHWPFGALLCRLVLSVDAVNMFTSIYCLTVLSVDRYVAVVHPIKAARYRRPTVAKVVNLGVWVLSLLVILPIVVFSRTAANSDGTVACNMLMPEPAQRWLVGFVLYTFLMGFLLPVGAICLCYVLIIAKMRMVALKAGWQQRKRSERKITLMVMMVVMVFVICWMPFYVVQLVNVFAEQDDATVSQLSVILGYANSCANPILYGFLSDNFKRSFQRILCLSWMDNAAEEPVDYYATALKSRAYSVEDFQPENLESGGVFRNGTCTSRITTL
T4 sequence (P31391 whole entry): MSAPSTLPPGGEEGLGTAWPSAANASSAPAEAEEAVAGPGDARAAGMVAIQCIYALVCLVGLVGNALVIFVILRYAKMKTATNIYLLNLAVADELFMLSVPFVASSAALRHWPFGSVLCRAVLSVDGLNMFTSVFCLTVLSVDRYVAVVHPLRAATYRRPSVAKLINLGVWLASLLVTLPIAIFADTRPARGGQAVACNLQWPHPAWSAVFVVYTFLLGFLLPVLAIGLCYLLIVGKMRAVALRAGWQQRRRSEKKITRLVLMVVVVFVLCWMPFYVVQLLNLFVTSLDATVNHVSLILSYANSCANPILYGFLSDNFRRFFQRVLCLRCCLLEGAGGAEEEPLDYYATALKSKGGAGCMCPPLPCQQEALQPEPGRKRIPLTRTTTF

IC50 [1]: > 1000 nM | IC50 [2]: 1.7 ± 0.06 nM | IC50 [3]: > 1000 nM | IC50 [4]: 404 ± 92 nM | IC50 [5]: 564 ± 174 nM
Compound: C[C@@H](O)[C@@H]1NC(=O)[C@H](CCCCN)NC(=O)[C@@H](Cc2c[nH]c3ccccc23)NC(=O)[C@H](Cc2ccc(O)cc2)NC(=O)[C@H](NC(=O)[C@H](Cc2ccc(Cl)cc2)NC(=O)CN2CCN(CC(=O)O)CCN(CC(=O)O)CCN(CC(=O)O)CC2)CSSC[C@@H](C(=O)N[C@H](Cc2ccc(O)cc2)C(N)=O)NC1=O [SS-03, DOTA-(4-Cl)-Phe-Cyclo(D-Cys-Tyr-D-Trp-Lys-Thr-Cys)-D-Tyr-NH2]

IC50 [1]: > 1000 nM | IC50 [2]: 5.3 ± 0.17 nM | IC50 [3]: 720 ± 74 nM | IC50 [4]: 171 ± 35 nM | IC50 [5]: 228 ± 73 nM
Compound: C[C@@H](O)[C@@H]1NC(=O)[C@H](CCCCN)NC(=O)[C@@H](Cc2c[nH]c3ccccc23)NC(=O)[C@H](Cc2ccc(O)cc2)NC(=O)[C@H](NC(=O)[C@H](Cc2ccc(Cl)cc2)NC(=O)C(CNCCN)CNCCN)CSSC[C@@H](C(=O)N[C@H](Cc2ccc(O)cc2)C(N)=O)NC1=O [SS-04, N4-(4-Cl)-Phe-Cyclo(D-Cys-Tyr-D-Trp-Lys-Thr-Cys)-D-Tyr-NH2]

Compound: C[C@@H](O)[C@@H]1NC(=O)[C@H](CCCCN)NC(=O)[C@@H](Cc2c[nH]c3ccccc23)NC(=O)[C@H](Cc2ccc(O)cc2)NC(=O)[C@H](NC(=O)[C@H](Cc2ccc(Cl)cc2)NC(=O)c2ccc(NN)nc2)CSSC[C@@H](C(=O)N[C@H](Cc2ccc(O)cc2)C(N)=O)NC1=O [^99mTc-SS-05, metal not drawn]
log D [6]: − 2.03 ± 0.27

Compound: C[C@@H](O)[C@@H]1NC(=O)[C@H](CCCCN)NC(=O)[C@@H](Cc2c[nH]c3ccccc23)NC(=O)[C@H](Cc2ccc(O)cc2)NC(=O)[C@H](NC(=O)[C@H](Cc2ccc(Cl)cc2)NC(=O)CN2CCN(CC(=O)O)CCN(CC(=O)O)CCN(CC(=O)O)CC2)CSSC[C@@H](C(=O)N[C@H](Cc2ccc(O)cc2)C(N)=O)NC1=O [^177Lu-SS-03, metal not drawn]
tissue uptake at 1 h ([7]; Adrenal uptake): 3.7 ± 0.63 %ID/g | tissue uptake at 4 h ([7]; Adrenal uptake): 2.9 ± 0.46 %ID/g | tissue uptake at 24 h ([7]; Adrenal uptake): 1.16 ± 0.46 %ID/g | tissue uptake at 1 h ([7]; Blood uptake): 0.57 ± 0.04 %ID/g | tissue uptake at 4 h ([7]; Blood uptake): 0.21 ± 0.04 %ID/g | tissue uptake at 24 h ([7]; Blood uptake): < 0.1 %ID/g | tissue uptake at 1 h ([7]; Bone uptake): 4.11 ± 0.53 %ID/g | tissue uptake at 4 h ([7]; Bone uptake): 2.77 ± 1.06 %ID/g | tissue uptake at 24 h ([7]; Bone uptake): 1.25 ± 0.16 %ID/g | tissue uptake at 1 h ([7]; Heart uptake): 0.69 ± 0.12 %ID/g | tissue uptake at 4 h ([7]; Heart uptake): 0.38 ± 0.07 %ID/g | tissue uptake at 24 h ([7]; Heart uptake): 0.11 ± 0.04 %ID/g | tissue uptake at 1 h ([7]; Intestine uptake): 3.13 ± 1.16 %ID/g | tissue uptake at 4 h ([7]; Intestine uptake): 2.28 ± 0.31 %ID/g | tissue uptake at 24 h ([7]; Intestine uptake): 0.27 ± 0.06 %ID/g | tissue uptake at 1 h ([7]; Kidney uptake): 15.2 ± 1.86 %ID/g | tissue uptake at 4 h ([7]; Kidney uptake): 17 ± 1.81 %ID/g | tissue uptake at 24 h ([7]; Kidney uptake): 7.35 ± 1.66 %ID/g | tissue uptake at 1 h ([7]; Liver uptake): 3 ± 0.66 %ID/g | tissue uptake at 4 h ([7]; Liver uptake): 1.75 ± 0.22 %ID/g | tissue uptake at 24 h ([7]; Liver uptake): 0.47 ± 0.07 %ID/g | tissue uptake at 1 h ([7]; Lung uptake): 13.2 ± 4.49 %ID/g | tissue uptake at 4 h ([7]; Lung uptake): 6.71 ± 1.37 %ID/g | tissue uptake at 24 h ([7]; Lung uptake): 0.74 ± 0.22 %ID/g | tissue uptake at 1 h ([7]; Muscle uptake): 0.22 ± 0.06 %ID/g | tissue uptake at 4 h ([7]; Muscle uptake): 0.12 ± 0.02 %ID/g | tissue uptake at 24 h ([7]; Muscle uptake): 0.07 ± 0.02 %ID/g | tissue uptake at 1 h ([7]; Pancreas uptake): 72.6 ± 13.8 %ID/g | tissue uptake at 4 h ([7]; Pancreas uptake): 54.5 ± 7.28 %ID/g | tissue uptake at 24 h ([7]; Pancreas uptake): 3.03 ± 0.62 %ID/g | tissue uptake at 1 h ([7]; Spleen uptake): 1.51 ± 0.19 %ID/g | tissue uptake at 4 h ([7]; Spleen uptake): 1.42 ± 0.77 %ID/g | tissue uptake at 24 h ([7]; Spleen uptake): 0.33 ± 0.06 %ID/g | tissue uptake at 1 h ([7]; Stomach uptake): 48.7 ± 13.1 %ID/g | tissue uptake at 4 h ([7]; Stomach uptake): 30.2 ± 4.25 %ID/g | tissue uptake at 24 h ([7]; Stomach uptake): 6.02 ± 1.4 %ID/g | tissue uptake at 1 h ([7]; Tumour uptake): 23.6 ± 1.28 %ID/g | tissue uptake at 4 h ([7]; Tumour uptake): 31.7 ± 4 %ID/g | tissue uptake at 24 h ([7]; Tumour uptake): 26.3 ± 4.42 %ID/g | tissue to tissue ratio at 1 h ([7]; Tumour/blood ratio): 41.3 | tissue to tissue ratio at 4 h ([7]; Tumour/blood ratio): 150 | tissue to tissue ratio at 24 h ([7]; Tumour/blood ratio): 361 | tissue to tissue ratio at 1 h ([7]; Tumour/bone ratio): 5.7 | tissue to tissue ratio at 4 h ([7]; Tumour/bone ratio): 11.5 | tissue to tissue ratio at 24 h ([7]; Tumour/bone ratio): 21.1 | tissue to tissue ratio at 1 h ([7]; Tumour/kidney ratio): 1.56 | tissue to tissue ratio at 4 h ([7]; Tumour/kidney ratio): 1.86 | tissue to tissue ratio at 24 h ([7]; Tumour/kidney ratio): 3.58 | tissue to tissue ratio at 1 h ([7]; Tumour/liver ratio): 7.9 | tissue to tissue ratio at 4 h ([7]; Tumour/liver ratio): 18.1 | tissue to tissue ratio at 24 h ([7]; Tumour/liver ratio): 55.8 | tissue to tissue ratio at 1 h ([7]; Tumour/muscles ratio): 110 | tissue to tissue ratio at 4 h ([7]; Tumour/muscles ratio): 259 | tissue to tissue ratio at 24 h ([7]; Tumour/muscles ratio): 372 | log D [6]: − 2.35 ± 0.22

Compound: DOTA-pNO2Phe-cyclo[D-Cys-Tyr-D-Trp-Lys-Thr-Cys]-D-Tyr-NH2 (disulfide) [DOTA-sst2-ANT]
IC50 [8]: > 1000 nM | IC50 [9]: 1.5 ± 0.4 nM | IC50 [10]: > 1000 nM | IC50 [11]: 287 ± 27 nM | IC50 [12]: > 1000 nM
